We go through one molecule from US20150299272A1 (UNIVERSITY OF NEWCASTLE UPON TYNE, published 2015).

In data set [1] the target is Caf1-6His NT + Spacer linking peptide (Yersinia pestis). Nature of the data set: co-expression in E. coli, western blot of partly heat-dissociated polymer.
Data set [2] concerns the molecule itself. Nature of the data set: Superdex 200 gel filtration (self-association). In general terms: In gel filtration, larger molecules generally elute earlier.

B1: Caf1 WT (naturally occurring Caf1 polypeptide monomer from Yersinia pestis; fraction 1 antigen polymer) (other)
chain: ADLTASTTATATLVEPARITLTYKEGAPITIMDNGNIDTELLVGTLTLGGYKTGTTSTSVNFTDAAGDPMYLTFTSQDGNNHQFTTKVIGKDSRDFDISPKVNGENLVGDDVVLATGSQDFFVRSIGSKGGKLAAGKYTDAVTVTVSNQ
On to B1, for which the binding result in data set [1] and in data set [2] was “binds” in each case.
